This note sets out measurements from the nanobody polyreactivity screen of Harvey et al. (2022).

This data set is described as follows: yeast display, Sf9 membrane polyspecificity reagent, FACS + sequencing; frameworks hold sequencing errors. Put shortly: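 Nanobodies from a synthetic yeast display library (Saccharomyces cerevisiae BJ5465), induced 36–48 hours with galactose, were stained 1 hour at 4 °C with 10% biotinylated, detergent-solubilized Sf9 membrane reagent, enriched on streptavidin microbeads, then FACS-sorted. Anti-HA (expression) and streptavidin (reagent binding) fluorescence set low and high (top ~1%) gates. Polyreactivity labels come from the gate of origin. Genes were colony-PCR amplified, MiSeq 2 × 250 sequenced and filtered by CDR length.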
“QVQHVESGGGLVQAGGSLRLSCAASGRTFGGNAMGWYRQAPGKERELVAAISKSGGRTYYADSVKGRFTISRDNAKNTVYLQMNSLKPEDTAVYYCNKVLSVSQAGGFDYWGQGTQVTVSS”: the “polyreactivity (PSR sort gate)” value was “high polyreactivity”.

“QVQLVESGGGLVQAGGSLRLSCAASGRIFGPYAMGWYRQAPGKDRELVAAISASGGRTYDADSVKGRFTISRDNAKNTVYLQMNSLKPEDTAVYYCARRYWHSGWIFDYWGQGTQVTVSS”: the “polyreactivity (PSR sort gate)” value is “high polyreactivity”.

Regarding “QVQLVESGGGLVQAGGSLRLSCAASGSIFASNAMGWYRQAPGKDTELVAAITYSGGSTYYADSVKGRFTISRDNAKKTVDLQMNSLKPEDTAVYYCAADVSVPQRYDYWGQGTQVTVSS”, the “polyreactivity (PSR sort gate)” value is given as “low polyreactivity”.

On to “QVQLVESGGGLVQAGGSLRLSCVASGRIIPGNAMGGYRQAPGKESELVAAISYGGGSTYYADSVKGRFTISRDNAKNTVYLQMNSLKPADTAVYYCAAASSGEYGYWGQGTQVTVSS”, for which the “polyreactivity (PSR sort gate)” value is recorded as “low polyreactivity”. For “QVQLVESGGGLVQAGGSLRLSCAASGGTFGRNVMGWYRQAPGKERELVAAISIRGGSTYYADSVKGRCTISRDNAKNTVYLQMNSLKAEDTAVYYCARDYPTDAYDYWGQGTQVTVSS”, the “polyreactivity (PSR sort gate)” value was “low polyreactivity”. Then “QVQLVESGRGLVQAGGSLRLSCAASGLIFTANAMGWYRQAPGKERELVASITRDGGTNYADSVKVRFTISRDNAKNTVYLQMNSLKPEDTAVYYCAKESGSVLTLYDYWGQGTQVTVSS”, with “low polyreactivity”; and “QVQLEESGGGLVQAGGSLRLSCAASGIIFATYAMGWYTQAPGKDRELVAAISSGGRTYYADSVKGRFTISRDNAKNTVYFQMNSLKPEDTAVYYCAAKSGGRSSLYNYWGQGTQVTVSS”, with “high polyreactivity”. As to “QVQLVESGGGLVQAGGSLRLSCAASGSIFSKYVMGWYRQAPGKQTELVAAISWSGTRTYYADSVKGRFTISRDNAKNTVYLQMNSLKPEDTAVYYCAALRLYAGHQYDYWGQGTQVTVSS”, the “polyreactivity (PSR sort gate)” value is “high polyreactivity”. Then “QDHLVESGGGLVQAGGSLRLSCAASGSIFGLNVMGWYRHAPGKERELVASITSGRSTNYADSVKVRFTISRDNAKNTVYLQMNSLKPVVTAVYYCYATRVRGWYVTRYYYWGQGTQVTVSA”, with “high polyreactivity”; and “QVQLVESGGGLVQAGGSLRLSCAASGRIFYTNAMGWYRQAPGKERELVATISSSGGRTYLRNSVKGRFTLSRDNAKNTVYLQMNSLKPEDTAVDYCAAGWSYPVRNIYYYWGQGTQVTVSS”, with “high polyreactivity”; and “QGQLVESGGGLVQAVGSLRLSCAASGITLRIYAMGWYRQAPGKEREMVAGITSGGSTNYADSVKGRFTLSRDNAKNTVYLQMNSLKPEDTAVYYCAARQVRTSKLHMGYWGQGTQVTVSS”, with “low polyreactivity”. Turning to “QVQLVESGGGLVQAGGSLRLSCAASGFIFTRYAMGWYRQAPGKERELVAVITSSGGTYYADSVKGRFTISRDNAKNTVYLQMNSLKPEDTAVYYCNAVLGYYTYDYWGQGTQVTVSS”, the “polyreactivity (PSR sort gate)” value is “high polyreactivity”.

For “QVQLVESGGGLVQAGVSLRLSCAASGTIFYTYTMGWYRQAPRKERELVATIRSTGSTDYADSVKGRFTISRDNAMNTVYLQMNSLKREDTAVYYCNADRFGDYDYWGQGTQVTVSS”, the “polyreactivity (PSR sort gate)” value is on record as “low polyreactivity”.

As for “QVQLVESGGGLVQAGGSLRLSCAASGFIFDAYAMGWYRQAPGKERELVAAITRGNTYYADSVTGRFTISRDNAKNTVYLQMNSLKPEDTAVYYCAARYWQSYRSQVTHSSTLDYWGQGTQVTVSS”, the “polyreactivity (PSR sort gate)” value is “low polyreactivity”. As to “QVQLVESGGGLVQAGGSLRLSCADSGLTFSVYTMGWYRQAPGKERELVAAITTSGGRTYYADSVKGRFTISRDNAKNTVYLQKNSLKPEDTAVYYCAAVRTGDTTGTMGYWGQGTQVTVSS”, the “polyreactivity (PSR sort gate)” value is given as “high polyreactivity”. To “QVQLVESGGGLVQAGGSLRLSCAASGFISPYAMRWYRQAPGKERELVAVITSSGGSTYYADSVKGRFTISRDNAKNTVYLQMNSLKPEDTAVYYCAARFYFRWYYYGSYANYWGQGTQVTVSS” belongs “high polyreactivity”; to “QVQLVESGGGLVQAGGRIRLTCAASGFTFKAYSMGCDRQAPGKERELVAAITKSGGRTFYADSVKGRFRISRDNAKNTVYLQMNSLKPEDTAVYYCAASYTVYYWGQGTQVTVSS”, “high polyreactivity”; to “QVQLVESGGGLVQAGGSHRLSCAASGTTIDYYAMGWYRQAPGKERELVAAISWSGGSTYYADSVKGRFTFSRDNAKNTVYLQMNSLKPEDTAVYYCAADSAFYTGSDYGWSDYDYWGQGTQVTVSS”, “low polyreactivity”. For the sequence “QVQLVESGGALVQAGGSLRLSCAASGRTYWSYNIGWYRKAPGKERELVAAITSSGGTTNYADSVKGRFTISRDNAKNTVYLQMNRLKREDTAVYYFAAYSWYFGSRYDYWGQGTQVTVSS”, the “polyreactivity (PSR sort gate)” value is reported as “low polyreactivity”.

With “QVQLVESGGGLVQAGGSLRLSCAASGIIFGLYAMGWYRQAPGKERELVAAITRSGGRTYYADSVKGRFTISRDNAKNTVYFQMNSLKPEDTAVYFCAADASGHSYDYWGQGTEVTVSS”, the “polyreactivity (PSR sort gate)” value is reported as “high polyreactivity”. With “QVQLVESVGGLVQAGGSLRLSCAASGRTFVVYAMGWYRQEPGKERELVAAIRVSDGSTYYADSEKGRFTISREISKNTVYLQMNSLNPEDTAVYYCNAESFRGFYYWGQGTQVTVSS”, the “polyreactivity (PSR sort gate)” value is reported as “high polyreactivity”.

Turning to “QVQLVESGGRLVQAGGSLRLSCAASGIIFFYYTIGWSRQAPGKERELVAAISSGGGTYYADSVKGRFTISRDNAKNTVYLQMNSLKPEDTAVYYCAAVRYSSSSRGGYWGQGTQVTVSS”, the “polyreactivity (PSR sort gate)” value was “high polyreactivity”. As to “QVQLVESGGGLVQAGGSLRLSCAASGRPFVSYALGWYRQAPGKERELVAVITGGTGNTYYADSVKGRFTISRDNAKNTVYLQMNSLIPEDTAVYYCNARGGYYKFRYPLYYWGQVTQVTVSS”, the “polyreactivity (PSR sort gate)” value is reported as “high polyreactivity”.

Consider “QVQLLESGGGLVQAGGSLRLSCAASGYTFQIKAMGWYRQAPGKERELVAAITSGGRTYYADSVKGLFTISRDNAKNTVYLQMNSLKPEDTAVYYCNKVPRRGVDYWGQGTQVTVSS”, for which the “polyreactivity (PSR sort gate)” value is “low polyreactivity”. For “QVQLVESGGGLVQAGGSLRLSCAASGSIFNYYAMGWYRQAPGKERELVAAITTSGGNTYYADSVKGRFTISRDNAKNTVYLQMNSLKPEDTAVYYCNTVYAGAAWYQYGYWGQGTQVTVSS”, the “polyreactivity (PSR sort gate)” value is listed as “low polyreactivity”. As for “QDQLVESGGGLVQAGGSLRLSCAASGRTISYYAMGWYRQAPGKERELVAAISGGGSTNYADSVKGRFTISRDNAKNTVYLQMNSLKPEDTAVYYCNARVYGVFRRRVNYWGQGTQVTVSS”, the “polyreactivity (PSR sort gate)” value is reported as “high polyreactivity”. In the case of “QVQLVESGGGLVQAGGSLRLSCDASGSTFNKYAMGWYRQAPGKERELVAAITTSGGRTTYADSVKGRFTISRDNAKNTVYVQMNSLKPEDTEVYYCAARYYIHRGYDYDYWGQGTQVSVSS”, the “polyreactivity (PSR sort gate)” value was “high polyreactivity”. With “QVQLVESGGGLVQAGGSLRLSCAASGSILGGNAMGWYRQAPGKEWELVAAITFSGGGTYYADSVKGRFTSSRDNAKNTVYLQMNSLKPEDTAVYYCAADKDGYTYEFDYWGQGTQVTVSS”, the “polyreactivity (PSR sort gate)” value is on record as “low polyreactivity”. Take “QVQLVESGGGLVQAGGSLRLSCAASGIIFRYYAMGLYRQAPGKERELVAAITTGGSTYYADSVKGRFTISRDNAKNTVYLQMNSLKPEDTAVYYCAAQILVRHIPYYYWGQGTQVTVSS”: the “polyreactivity (PSR sort gate)” value is on record as “high polyreactivity”.

With “QVQLVESGGGLVQAGGSLRLSCAASGSTLTLYAMGWYRQARGKERELVAAIDWTGGSTYYADSVKGRFTISRDNAKNTVYLQMNSLKPEDTAVYYCAAHSFTEGYWYEYWGQGTQVTVSS”, the “polyreactivity (PSR sort gate)” value is given as “high polyreactivity”. As to “QVQLVESGGGLVQAGGSLRLSCAASGNIFGWYAMGWYRQAPGKERELVAAISSGGRTNYADSVKGRFTISRDNAKNTVYLQMNSLKPEDTAVYYCAAERKLYGLYDYWGQGTQVTVSS”, the “polyreactivity (PSR sort gate)” value is given as “low polyreactivity”. With “QVQLVESGGGLVQAGGSLRLSCAASGITFYRYVMGWYRQAPGKERELVAAITTGDSTYYADSVKGRFTISRDNAKNTVYLQMNSLKPEDTAVYFCAAVYYTALANYDYWGQGTQVTVSS”, the “polyreactivity (PSR sort gate)” value is recorded as “low polyreactivity”.

For “QVQLVESGGGLVQAGGSLRLSCAASGSIFDVYAMGWYRQAPGKERELVATMSNSAGSTYYADSVKGRFTISRDNAKYTVYLQMNSLKPEDTAVYYCAAVVVYFDEYDYWGQGTQVTVSS”, the “polyreactivity (PSR sort gate)” value is reported as “low polyreactivity”. As for “QVQLVESGGGLVQAGGSLRLSCAASGRTFASYARGWYRQAPGKERELVAVITRGVRTYYADSVKGRFTISRDNAKNTVYLQMNSLKPEDTAVYYCAKERYNANYDTSLYDYWGQGTQVTVSS”, the “polyreactivity (PSR sort gate)” value is “low polyreactivity”.

On to “QVQLVESGGGLVQAGGSLRLSCAASGSIFYYYAMGWYRQAPGTERELVAAIYNGGSTYYADSVKGRFTISRDNAKNTVYLQMNSLKPEDTAVYYCNAGYSYWYRDLGYDSWGQGTQVTVSS”, for which the “polyreactivity (PSR sort gate)” value is on record as “low polyreactivity”. Turning to “QVQLVESGGGLVQAGASLRLSCAASGITFTPYAMGWYRQAPGKERELVAAISWRGGSTYYADSVKGRFTISRDNAKNTVYLQMNSLKPEDTAVYYCAKDGRGYGRYSRYYTGDYWGQGTQVTVSS”, the “polyreactivity (PSR sort gate)” value is on record as “low polyreactivity”. To “QVQLVESGGGLVQAGGSLRLSCAASGSILLRNTMGWYRQAPGKERELVAAISWRGGSTYYADSVKGRFTISRDNAKNTVYLQMNSLKPEDTAVYYCAARWVASHKGGYWGQGTQVTVSS” belongs “high polyreactivity”; to “QVQLVESGGGLVQAGGSLRLSCAASGYMGWYRQAPGKERELVATISGSGGSTYYADSVKGRFTISRDNAKNTVYLQMNSLKPEDTAVYYCTTEIWGVNRSGYDYWGQGTQVTVSS”, “low polyreactivity”. Take “QVQLVESGGGLVQAGGSLRLSCAASGSTFQTYAMGWYRQAPGKERELVAAITWRGGSTYYADSVKGRFTISRDNAKTTVYLQMNSLKPEDTAVYSCAAKWHGAHDHRAAYESWGQGTQVTVSS”: the “polyreactivity (PSR sort gate)” value is “low polyreactivity”. “QVQHVESGGGLVQAGGSLRLSCAASGFIFPVNAMGWYRQAPGKERELVAAITYSTGSTYYADSVKGRFTISRDNAKNTVYLQMNSLKPEDTAVYSCAADVPPGEVVTNDYWGQGTQVTVSS”: the “polyreactivity (PSR sort gate)” value is given as “low polyreactivity”. To “QVQLVESGGGLVQAGGSLRLSCAASGLIFAVYTMGWYRQAPGKERELVAAITRRSTRTYYADSVKGRFTISRDNAKNTVYLQMNSLKPEDTAVYYCAADRGSSGAAFEYWGQGTQVTVSS” belongs “low polyreactivity”.
